T1: TNFR2 (TNFRSF1B/CD120b), yeast two-hybrid construct (mouse (clone from a murine embryonic …, UniProt P25119 23-258))
T1 construct: one molecule is used for all Y2H assays; also called cell surface TNFR2
T1 sequence (looked up): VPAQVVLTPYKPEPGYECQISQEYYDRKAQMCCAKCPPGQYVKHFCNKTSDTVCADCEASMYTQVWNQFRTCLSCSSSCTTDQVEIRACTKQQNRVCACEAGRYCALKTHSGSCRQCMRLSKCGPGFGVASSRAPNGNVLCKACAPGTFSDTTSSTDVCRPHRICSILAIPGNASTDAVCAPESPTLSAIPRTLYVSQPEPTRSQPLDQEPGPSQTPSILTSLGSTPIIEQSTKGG


Molecular target: T1, TNFR2 (TNFRSF1B/CD120b), yeast …
Test: yeast two-hybrid, β-galactosidase assay
Procedure: Assay of protein-protein interactions using the Y2H system. Independent yeast colonies were analyzed for the interaction of two proteins, one of which was fused to the Ga14 DNA binding domain and the other, to the VP16 transactivation domain. Previously published procedures were followed for 1) growing and transforming the yeast strain MAV203 with the selected plasmids; and 2) determining β-galactosidase activity and growth phenotypes on selective media lacking tryptophan, leucine, histidine, and uracil.

Binder	binding result
ITPTGTHPLAKKLPAQRTNRAVALSSS [PGRN linker region P3 (yeast two-hybrid construct)]	no binding
PGRN granulin unit F (yeast two-hybrid construct) (also called granulin F) AIQCPDSQFECPDFSTCCVMVDGSWGCCPMPQASCCEDRVHCCPHGAFCDLVHTRCI	no binding
LSKENATTDLLTKLPAHTVGD [PGRN linker region P4 (yeast two-hybrid construct)]	no binding
PGRN granulin unit A (yeast two-hybrid construct) (also called granulin A) DVKCDMEVSCPDGYTCCRLQSGAWGCCPFTQAVCCEDHIHCCPAGFTCDTQKGTCE	no binding
EQGPHQVPWMEKAPAHLSLPDPQALKRDV [PGRN linker region P5 (yeast two-hybrid construct)]	no binding
PGRN granulin unit C (yeast two-hybrid construct) (also called granulin C) VPCDNVSSCPSSDTCCQLTSGEWGCCPIPEAVCCSDHQHCCPQGYTCVAEGQCQ	no binding

Reference: patent publication US20140045756A1 (NEW YORK UNIVERSITY, published 2014)
